Assay results reported in the RNAGym collection of RNA variant scans (doi:10.1073/pnas.2313332121).

B1: TPR t1 (parent)
chain: GACCAAUCUGCCCUCAGAGCUCGAGAACAUCUUCGGAUGCAGAGGAGGCAGGCUUCGGUGGCGCGAUAGCGCCAACGUCCUCAACCUCCAAUGCAUCCCACCACAUGAUGAUGCCUGAAGAGCCUUGGUUUUUUG

Variants of: B1
Test: polymerase ribozyme fitness, log enrichment relative to wild type (log ratio); higher = more active; in vitro selection for triplet polymerase activity
Outline: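 Input and output libraries were sequenced on Illumina after a single in vitro selection round, run in triplicate on PCR-built, transcribed mutant libraries of each subunit of a heterodimeric triplet polymerase ribozyme. Selection annealed libraries to a biotinylated primer, the partner subunit and triplets, incubated them frozen at −7 °C, then gel-excised extended constructs for streptavidin-bead capture and RT-PCR. Genotypes with ≥10 input reads and ≥1 read per output were kept. Fitness is the logarithm, taken in base 2, of genotype enrichment divided by wild-type enrichment, using inverse-variance-weighted replicate averages.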

| Variant | polymerase ribozyme fitness (log ratio) |
| --- | --- |
| A111U G113A U130G | -5.85 |
| U106G G117U | -4.18 |
| C102U A119U C123A U126A | -2.22 |
| G113A U116A | -4.71 |
| U112C G120C | 0.72 |
| U112A G113U | -0.351 |
| G110C | -3.75 |
| G110A | -0.79 |
| G110U | -1.08 |
| C101U G128C | -2.13 |
| G107A U112A | -5.07 |
| C104A U130A | -2.46 |
| U106C G113U | -3.01 |
| G113A C123G U129A | -1.16 |
| C101G G110A | -4.15 |
| G107C G135U | -5.77 |
| U106G C124A | 1.19 |
| A108G C115U | -3.36 |
| A111C A119C G127U | -2.96 |
| A108G G120A C124G U131G | -0.578 |
| G110C C123G | -4.09 |

| Variant | polymerase ribozyme fitness (log ratio) |
| --- | --- |
| C101G U112A | 0.152 |
| G113A G128U | -2.37 |
| C101A U112A | 0.611 |
| C104A G113C | -4.17 |
| A111U U132A | -2.14 |
| C102U U130G | -2.52 |
| G110A C124A | -0.401 |
| G110A C124U | -0.567 |
| A111U A121U U129A G135C | -2.04 |
| C104A U112G C123G | -1.23 |
| C104U G120U | -0.787 |
| U109A C124U | -4.15 |
| U106A U109C | -3.27 |
| C104G A105U A111C G122A | -7.2 |
| C104G A119G | -6.88 |
| U109G G120A | -4.17 |
| C102U U109G | -5.46 |
| A111U A121C U126A U130G | -2.89 |
| A103C | -5.01 |
| A103G | -3.07 |
| A103U | -4.71 |

| Variant | polymerase ribozyme fitness (log ratio) |
| --- | --- |
| A105C G110A C115U A119G | -6.05 |
| U109A U112A | -4.47 |
| A111G C115U | -2.28 |
| C102G U106C C114G C123A | -6.08 |
| G110U U116A | -3.44 |
| G113C U125A | -3.4 |
| C104U U106C G120U | -0.245 |
| U109A U134G | -5.32 |
| G113A C123G | -0.469 |
| G113A G120C | -1.02 |
| A111C U129G | -0.988 |
| U106C G127C | -1.07 |
| U112A C115G | -0.927 |
| A111G U112A | -2.9 |
| C102A U109C | -6.22 |
| G113C C115A | -4.21 |
| C101U C102G | -6.19 |
| A103U G127U U129G | -3.98 |
| U112C G135U | -0.0479 |
| G113C G135U | -4.15 |
| U112C G128U | -0.242 |

| Variant | polymerase ribozyme fitness (log ratio) |
| --- | --- |
| G113C U116G C124A | -5.98 |
| C104A U106A | -2.51 |
| U109A U133A | -5.88 |
| C101U C104G U109G | -6.55 |
| A105U G120U C123U | -2.19 |
| U112A G128U U131C | 1.17 |
| U112C G127A | 0.907 |
| C104A U133A | -1.68 |
| C104U G128C | -1.84 |
| G107U C123G | -2.37 |
| C104U A118G | 0.462 |
| C101A C115G U132C | -3.46 |
| U109A C114U A121C | -4.32 |
| A111G U133G | -0.431 |
| A111C C115A | -3.19 |
| C102U C124A | -0.401 |
| C102U C124G | 0.125 |
| A111C G113A | -3.44 |
| U106A G117U | -2.19 |
| C104U C123G | 1.92 |
